This experiment deals with GST. In words: cross-linking; BS3 0.25 mM, 15 min at RT in PBS with 1 mM DTT, proteins mixed about 1:1; SDS-PAGE, anti-His and anti-GST Western blots. Background: A western blot detects proteins with antibodies after separation by electrophoresis.

Sequence of GST (natural protein) (P08515 2-218): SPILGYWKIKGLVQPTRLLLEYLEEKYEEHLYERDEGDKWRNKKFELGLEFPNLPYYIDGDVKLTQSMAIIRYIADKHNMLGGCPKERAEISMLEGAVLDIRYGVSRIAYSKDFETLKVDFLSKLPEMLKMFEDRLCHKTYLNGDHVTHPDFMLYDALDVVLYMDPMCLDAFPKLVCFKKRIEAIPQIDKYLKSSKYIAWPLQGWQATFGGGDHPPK

Substance GST (natural protein) gave a stoichiometry N of 2.

As usually defined, the stoichiometry N is a count of units in the complex or per binding partner.

The values are drawn from article PMC5498717.
